{
  "source": "patent US20030037355",
  "key": {"[1]": {"system": "e2c six-finger zinc finger protein (artificial)", "details": "CITED Beerli et al. 1998; cited from earlier work"}, "[2]": {"system": "2C7 six-finger zinc finger protein (artificial)", "details": "CITED earlier work; cited from earlier work"}, "[3]": {"target": "C7-VP64 three-finger activator (artificial) (UniProt P08046)", "assay": "cell_activity", "details": "tobacco protoplasts, Reporter II pc7rbTATA; Reporter I 10 fold"}, "[4]": {"system": "SID-2C7 six-finger repressor (artificial)", "assay": "cell_activity", "details": "tobacco protoplasts; almost 2 fold in maize"}},
  "data": [
    {"substance": "e2c target site", "values": [
      {"measurement": "Kd", "setting": "[1]", "value": 0.5, "unit": "nM"}
    ]},
    {"substance": "GCGTGGGCGGCGTGGGCG (double strand) [2C7 binding site (six tandem repeats in reporters)]", "values": [
      {"measurement": "Kd", "setting": "[2]", "value": 0.46, "unit": "nM"},
      {"measurement": "activity (fold activation)", "setting": "[3]", "value": 100},
      {"measurement": "activity (fold repression)", "setting": "[4]", "value": 5}
    ]}
  ]
}
